Substitutions are numbered along the chain they refer to.

The labels stand for the following.
B1: h49G8VHv6VKv2 (antibody, V domains shown)
VH: QVQLVQSGAEVKKPGSSVKVSCKASGYTFADYEIHWVRQAPGQGLEWMGAIHPGSGGTAYAQKFQGRVTLTADESSTTAYMELSSLRSEDTAVYYCTRYYSFAYWGQGTLVTVSS
VL: DVVMTQSPLSLPVTPGEPASISCRSSQSIVHSNYNTYLEWYLQKPGQSPQLLIYKVSNRFSGVPDRFSGSGSGTDFTLKISRVEAEDVGVYFCLQVTHVPLTFGQGTKLEIK
notes: Humanized 49G8; The name is read as h49G8VHv6 plus h49G8VKv2
B2: h49G8VHv6VKv6 (antibody, V domains shown)
VH: B1 VH
VL: B1 VL with Y34A
notes: Humanized 49G8
B3: h49G8VHv6VKv4 (antibody, V domains shown)
VH: B1 VH
VL: B1 VL with Y34S
notes: Humanized 49G8
B4: h49G8VHv6VKv5 (antibody, V domains shown)
VH: B1 VH
VL: B1 VL with Y34T
notes: Humanized 49G8
B5: h49G8VHv6VKv3 (antibody, V domains shown)
VH: B1 VH
VL: B1 VL with Y34G
notes: Humanized 49G8
B6: aCD3-hVH1/VL5 (antibody, V domains shown)
VH: EVQLVESGGGLVQPGGSLRLSCAASGFTFNTYAMNWVRQAPGKGLEWVSRIRSKYNNYATYYADSVKDRFTISRDDSKNTLYLQMNSLRAEDTAVYYCVRHGNFGNSYVSWFAYWGQGTLVTVSS
VL: QAVVTQEPSLTVSPGGTVTLTCRSSTGAVTTSNYANWVQEKPGQAPRGLIGGTNKRAPWTPARFSGSLLGGKAALTITGAQAEDEAEYYCVLWYSNLWVFGGGTKLTVL
notes: Humanized CD3 antibody with human IgG4 CH1-CH3 and a lambda light chain constant region
B7: aCD3-hVH8/VL5 (antibody, V domains shown)
VH: B6 VH with Q39K, S49G, T80S, R89K, A90T, V99A
VL: B6 VL
notes: Human IgG4, lambda
B8: aCD3-hVH9/VL1 (antibody, V domains shown)
VH: B6 VH with Q39K, S49G, T80S, R89K, A90T
VL: B6 VL with E40Q, I77L, T78S, A82P, V91A
notes: Human IgG4, lambda
B9: aCD3-hVH8/VL1 (antibody, V domains shown)
VH: B6 VH with Q39K, S49G, T80S, R89K, A90T, V99A
VL: B6 VL with E40Q, I77L, T78S, A82P, V91A
notes: Human IgG4, lambda
B10: aCD3-hVH9/VL3 (antibody, V domains shown)
VH: B6 VH with Q39K, S49G, T80S, R89K, A90T
VL: B6 VL with Q1E, R23E, T26D, R56E, I77L, T78S, A82P, V91A
notes: Human IgG4, lambda

The first assay deals with T1, recombinant human GPC3 protein (human, UniProt P51654 25-563).
T1 construct: also called human GPC3 full-length protein; recombinant GPC3 protein
Description: ELISA on coated recombinant human GPC3 protein, OD450 [panel Recombinant human GPC3 protein]. (ELISA stands for enzyme-linked immunosorbent assay.)
In the case of B1, the 50% effective concentration (EC50 (read off the curve)) was roughly 0.03 nM.

As for B2, the “EC50 (read off the curve)” value was roughly 0.03 nM.

In the case of B3, the half-maximal effective concentration (EC50 (read off the curve)) was roughly 0.03 nM.

Take B4: the 50% effective concentration (EC50 (read off the curve)) was roughly 0.03 nM.

On to B5, for which the half-maximal effective concentration (EC50 (read off the curve)) was roughly 0.03 nM.

In a further assay the target is T2, human CD3εγ-Fc heterodimer (human).
T2 construct: also called human CD3 εγ protein; recombinant CD3 εγ protein
T2 chain 1: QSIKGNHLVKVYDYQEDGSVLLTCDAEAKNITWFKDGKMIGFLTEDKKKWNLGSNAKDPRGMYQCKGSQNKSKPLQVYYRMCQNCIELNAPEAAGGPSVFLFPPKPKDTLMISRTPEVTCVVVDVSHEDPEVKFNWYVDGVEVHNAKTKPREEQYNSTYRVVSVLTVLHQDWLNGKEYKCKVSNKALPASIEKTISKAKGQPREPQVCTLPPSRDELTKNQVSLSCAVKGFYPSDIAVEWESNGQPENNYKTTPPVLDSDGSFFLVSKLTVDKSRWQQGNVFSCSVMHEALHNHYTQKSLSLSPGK
T2 chain 2: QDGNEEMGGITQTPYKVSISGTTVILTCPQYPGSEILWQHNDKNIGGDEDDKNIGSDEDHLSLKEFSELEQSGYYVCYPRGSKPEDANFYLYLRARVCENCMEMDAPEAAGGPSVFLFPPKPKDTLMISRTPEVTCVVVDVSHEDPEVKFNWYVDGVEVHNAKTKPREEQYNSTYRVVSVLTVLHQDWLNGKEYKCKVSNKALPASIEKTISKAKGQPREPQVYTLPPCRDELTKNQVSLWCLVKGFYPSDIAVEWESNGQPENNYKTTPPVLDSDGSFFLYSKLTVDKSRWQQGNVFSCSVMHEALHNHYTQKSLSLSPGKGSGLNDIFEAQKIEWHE
As to the kind of experiment: ELISA, coated human CD3εγ protein. The method, then: Human CD3 εγ protein was coated overnight at 4° C. After blocking with 2% skim milk, different dilutions of CD3 antibodies was added to each well and incubated for 1 hour. The secondary antibody HPR-labeled goat anti-human IgG Fc was added. After being developed by the TMB solution, the reaction was stopped with the concentrated sulfuric acid, and the absorbance was read at 450 nm (the results are shown in FIG. 12 and Table 8).
B6 showed a 50% effective concentration (EC50) of 0.6 nM.

In turn, B7 came in with an EC50 of 0.74 nM.

As to B8, the EC50 amounted to 0.49 nM.

For the molecule B9, the midpoint of the response, the EC50, lay at 0.65 nM.

As to B10, the concentration for a half-maximal effect (EC50) came out at 0.7 nM.

A further assay deals with T3, recombinant cynomolgus monkey GPC3 full-length protein (cynomolgus monkey, UniProt A0A2K5VK50 24-558). As to the kind of experiment: ELISA on coated recombinant cynomolgus monkey GPC3 protein, OD450 [panel Recombinant cynomolgus monkey GPC3 protein].
Take B1: the “EC50 (read off the curve)” value is roughly 0.03 nM.

In the case of B2, the 50% effective concentration (EC50 (read off the curve)) is roughly 0.03 nM.

Turning to B3, the half-maximal effective concentration (EC50 (read off the curve)) was roughly 0.03 nM.

B4: the half-maximal effective concentration (EC50 (read off the curve)) was roughly 0.03 nM.

For B5, the concentration giving a half-maximal response (EC50 (read off the curve)) is roughly 0.03 nM.

The target in another assay is T4, human CD3 on T cells (human, UniProt P07766 23-207).
T4 construct: whole, on cells; The target is the native CD3 complex on cells; The recombinant antigen used elsewhere is the εγ heterodimer; also called CD3 on Jurkat cells; CD3 on human peripheral blood CD4+ and CD8+ T cells
As to the kind of experiment: flow cytometry, Jurkat cells. The procedure:
Jurkat cells in the logarithmic growth phase were taken, blocked with 3% BSA for 30 min, and added to 96-well U-plate at 5×10⁴ cells per well. The supernatant was discarded after centrifugation. 50 μL of gradient diluted antibody was added (antibody concentration: from 30 ng/mL, 3-fold dilution for 5 gradients) per well, and incubated at 4° C. for 1 hour. […] After washing, 50 μL PBS was added per well to perform resuspending for FACS (iQue, intellicyt) assay (the results are seen in FIG. 13, and Table 10).
Take B6: the EC50 turned out to be 10 nM.

For B8, a half-maximal response (EC50) required 7 nM.

For the molecule B9, the concentration giving a half-maximal response (EC50) stood at 15 nM.

A further assay has as its target T1, recombinant human GPC3 protein. Description: BLI (Octet), antibody on Protein A probe. The procedure: Using BLI technology (Octet), the antibody to be tested was captured on the Protein A probe. The binding capacity with human GPC3 protein (10 μg/ml as the initial concentration, 2-fold gradient, a total of 5 concentration points) was detected. The affinity constant KD was obtained according to the association and dissociation rates. The 49G8 humanized antibody binds to the recombinant GPC3 protein with high affinity. The affinity data is seen in Table 6.
In general terms: In BLI a coated tip is dipped into the sample, and binding shifts an interference pattern.
As to B1, the Kd was found to be 2 nM, the off-rate constant (koff) worked out at 0.000187 s⁻¹ and the association rate constant (kon) worked out at 93600 M⁻¹ s⁻¹.

B2: the Kd was found to be 2.38 nM, the koff was determined as 0.00022 s⁻¹ and the on-rate constant (kon) worked out at 92400 M⁻¹ s⁻¹.

Regarding B3, the Kd was determined as 2.28 nM, the koff was determined as 0.000205 s⁻¹ and the kon came out at 89900 M⁻¹ s⁻¹.

As to B4, the dissociation constant (Kd) amounted to 2.15 nM, the off-rate (koff) was 0.000193 s⁻¹ and the on-rate constant (kon) was found to be 90000 M⁻¹ s⁻¹.

For B5, the dissociation constant (Kd) was 1.42 nM, the koff worked out at 0.000134 s⁻¹ and the on-rate constant (kon) was found to be 94800 M⁻¹ s⁻¹.

A further assay addresses T3, recombinant cynomolgus monkey GPC3 …. As to the kind of experiment: SPR (Biacore T200), antibody on Protein A chip, GPC3 as analyte. The method, then:
(§1) Humanized antibodies with higher affinity were selected and compared for binding to human and cynomolgus monkey GPC3. The humanized antibody h49G8VHv6VKv3 was captured by the Protein A chip (GE healthcare). The recombinant proteins of human and cynomolgus monkey GPC3 diluted in gradient (5 μg/ml as the initial concentration, 2-fold gradient, 5 concentration points in total) were flowed through the chip at a flow rate of 30 μL/min, with a binding time of 150 seconds and dissociation time of 600 seconds. The kinetic constant was fitted using Biacore T200 evaluation software with a Langmuir 1:1 kinetics model. The humanized antibody h49G8VHv6VKv3 binds to human and cynomolgus monkey GPC3 with high affinity. […] The affinity data is seen in Table 7.
On the technique in general: SPR reads the build-up and loss of mass on a sensor chip optically.
Take B5: the equilibrium dissociation constant (Kd) worked out at 2.1 nM, the koff came out at 0.00025 s⁻¹ and the kon was determined as 119000 M⁻¹ s⁻¹.

The target of another assay is T1, recombinant human GPC3 protein. The description is as above. The method, then: as §1
For the molecule B5, the Kd turned out to be 1.39 nM, the off-rate constant (koff) came out at 0.000351 s⁻¹ and the kon turned out to be 253000 M⁻¹ s⁻¹.

The target in the next assay is T5, human GPC3 on cells (human, UniProt P51654 25-563).
T5 construct: whole, on cells; One molecule is used for both CHO-hGPC3 transfectants and GPC3+ HepG2 cells; The assay field names the cell; also called CHO-hGPC3 (clone 2B10); CHO-human GPC3
As to the kind of experiment: flow cytometry on human GPC3-CHO stably-transfected cells, MFI.
For B1, the “EC50 (read off the curve)” value is roughly 2 nM.

Consider B2, for which the concentration giving a half-maximal response (EC50 (read off the curve)) was roughly 2 nM.

As to B3, the concentration for a half-maximal effect (EC50 (read off the curve)) is roughly 2 nM.

As for B4, the “EC50 (read off the curve)” value is roughly 2 nM.

Turning to B5, the “EC50 (read off the curve)” value was roughly 2 nM.

For orientation: EC50 (read off the curve) means the concentration giving half of the maximal effect. For orientation: EC50 means the concentration needed to bring the measured effect to its halfway point. In general, Kd refers to the constant that tells how readily two partners part at equilibrium. For orientation: koff means a measure of how fast the partners let go of each other. Broadly, the kon is a measure of how fast the partners come together.

Source of the values: patent publication US20240043568A1 (KEYMED BIOSCIENCES, published 2024).
